Source: paper PMC5030251, “Metal-Induced Stabilization and Activation of Plasmid Replication Initiator RepB” (Frontiers in Molecular Biosciences, 2016)

Target: the molecule itself
Assay: AUC; sedimentation equilibrium; RepB6 samples heated to temperatures from 25°C up to 45°C (end of the first thermal transition)

B1: RepB, replication initiator protein of the streptococcal plasmid pMV158 (enzyme, UniProt P13921 1-210, looked up)
chain: MAKEKARYFTFLLYPESIPSDWELKLETLGVPMAISPLHDKDKSSIKGQKYKKAHYHVLYIAKNPVTADSVRKKIKLLLGEKSLAMVQVVLNVENMYLYLTHESKDAIAKKKHVYDKADIKLINNFDIDRYVTLDVEEKTELFNVVVSLIRAYTLQNIFDLYDFIDENGETYGLTINLVNEVIAGKTGFMKLLFDGAYQRSKRGTKNEER
notes: RepB, replication initiator (Rep) protein encoded by plasmid pMV158; 210 amino acid polypeptide purified as a hexamer; In assay a2 the protein had been heated beyond its first, irreversible thermal transition (OBD denatured); also called RepB6; full-length hexameric RepB; source: purified as described previously (Ruiz-Masó et al., 2004; Boer et al., 2009)
  stoichiometry N: ~6
